Data reported in article PMC4390882 (Life, 2015).
One block for each molecule: values may come before it.

Legend:
[1] = biological target: T1, MtACK (Methanosarcina thermophila acetate kinase) (Methanosarcina thermophila, UniProt P38502, N211S); assay: hydroxamate assay, A540; assay type: biochemical; settings: saturating acetate when possible (max 1 M), MgCl2, 50 mM Tris pH 7.5, 300 mM hydroxylamine, 37 °C
T1 construct: gene ackA; full-length, N-terminal His6 tag (pET15b, pETack), expressed in E. coli BL21(DE3), HisTrap purified; tag removal not mentioned
T1 sequence (P38502 whole entry N211S): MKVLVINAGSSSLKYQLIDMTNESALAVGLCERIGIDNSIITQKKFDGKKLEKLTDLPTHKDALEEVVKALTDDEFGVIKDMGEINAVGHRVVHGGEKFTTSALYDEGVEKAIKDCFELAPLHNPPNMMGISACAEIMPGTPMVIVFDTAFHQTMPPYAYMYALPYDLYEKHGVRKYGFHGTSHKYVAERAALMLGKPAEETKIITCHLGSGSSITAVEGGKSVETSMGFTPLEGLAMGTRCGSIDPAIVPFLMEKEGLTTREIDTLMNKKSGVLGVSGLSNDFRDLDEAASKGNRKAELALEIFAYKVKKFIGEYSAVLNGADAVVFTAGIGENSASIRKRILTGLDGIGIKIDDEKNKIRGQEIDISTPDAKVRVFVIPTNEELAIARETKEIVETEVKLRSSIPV

[2] = biological target: T2, MtACK (Methanosarcina thermophila acetate kinase) (Methanosarcina thermophila, UniProt P38502, G331A); assay: hydroxamate assay, A540; assay type: biochemical; settings: saturating acetate when possible (max 1 M), MgCl2, 50 mM Tris pH 7.5, 300 mM hydroxylamine, 37 °C
T2 construct: gene ackA; full-length, N-terminal His6 tag (pET15b, pETack), expressed in E. coli BL21(DE3), HisTrap purified; tag removal not mentioned

[3] = biological target: T3, MtACK (Methanosarcina thermophila acetate kinase) (Methanosarcina thermophila, UniProt P38502, G331Q); assay: hydroxamate assay, A540; assay type: biochemical; settings: acetate not saturating (max 1 M), MgCl2, 50 mM Tris pH 7.5, 300 mM hydroxylamine, 37 °C
T3 construct: gene ackA; full-length, N-terminal His6 tag (pET15b, pETack), expressed in E. coli BL21(DE3), HisTrap purified; tag removal not mentioned
T3 sequence (P38502 whole entry G331Q): as the sequence (P38502 whole entry N211S) above, with S211N, G331Q counted along it

[4] = biological target: T4, MtACK (Methanosarcina thermophila acetate kinase) (Methanosarcina thermophila, UniProt P38502); assay: hydroxamate assay, A540; assay type: biochemical; settings: saturating acetate when possible (max 1 M), MgCl2, 50 mM Tris pH 7.5, 300 mM hydroxylamine, 37 °C
T4 construct: gene ackA; full-length, N-terminal His6 tag (pET15b, pETack), expressed in E. coli BL21(DE3), HisTrap purified; tag removal not mentioned

[5] = biological target: T5, MtACK (Methanosarcina thermophila acetate kinase) (Methanosarcina thermophila, UniProt P38502, N211A); assay: hydroxamate assay, A540; assay type: biochemical; settings: saturating acetate when possible (max 1 M), MgCl2, 50 mM Tris pH 7.5, 300 mM hydroxylamine, 37 °C
T5 construct: gene ackA; full-length, N-terminal His6 tag (pET15b, pETack), expressed in E. coli BL21(DE3), HisTrap purified; tag removal not mentioned
T5 sequence (P38502 whole entry N211A): as the sequence (P38502 whole entry N211S) above, with S211A counted along it

[6] = biological target: T6, MtACK (Methanosarcina thermophila acetate kinase) (Methanosarcina thermophila, UniProt P38502, G239A); assay: hydroxamate assay, A540; assay type: biochemical; settings: saturating acetate when possible (max 1 M), MgCl2, 50 mM Tris pH 7.5, 300 mM hydroxylamine, 37 °C
T6 construct: gene ackA; full-length, N-terminal His6 tag (pET15b, pETack), expressed in E. coli BL21(DE3), HisTrap purified; tag removal not mentioned
T6 sequence (P38502 whole entry G239A): as the sequence (P38502 whole entry N211S) above, with S211N, G239A counted along it

[7] = biological target: T7, MtACK (Methanosarcina thermophila acetate kinase) (Methanosarcina thermophila, UniProt P38502, N211T); assay: hydroxamate assay, A540; assay type: biochemical; settings: saturating acetate when possible (max 1 M), MgCl2, 50 mM Tris pH 7.5, 300 mM hydroxylamine, 37 °C
T7 construct: gene ackA; full-length, N-terminal His6 tag (pET15b, pETack), expressed in E. coli BL21(DE3), HisTrap purified; tag removal not mentioned
T7 sequence (P38502 whole entry N211T): as the sequence (P38502 whole entry N211S) above, with S211T counted along it

[8] = biological target: T8, MtACK (Methanosarcina thermophila acetate kinase) (Methanosarcina thermophila, UniProt P38502, G239S); assay: hydroxamate assay, A540; assay type: biochemical; settings: saturating acetate when possible (max 1 M), MgCl2, 50 mM Tris pH 7.5, 300 mM hydroxylamine, 37 °C
T8 construct: gene ackA; full-length, N-terminal His6 tag (pET15b, pETack), expressed in E. coli BL21(DE3), HisTrap purified; tag removal not mentioned
T8 sequence (P38502 whole entry G239S): as the sequence (P38502 whole entry N211S) above, with S211N, G239S counted along it

hydroxamate assay, A540 [9] = substrate: Nc1nc2c(ncn2[C@@H]2O[C@H](COP(=O)(O)OP(=O)(O)OP(=O)(O)O)[C@@H](O)[C@H]2O)c(=O)[nH]1; assay: hydroxamate assay, A540; assay type: biochemical, Methanosarcina thermophila; settings: saturating acetate when possible (max 1 M), MgCl2, 50 mM Tris pH 7.5, 300 mM hydroxylamine, 37 °C
hydroxamate assay, A540 [10] = substrate: Nc1ccn([C@@H]2O[C@H](COP(=O)(O)OP(=O)(O)OP(=O)(O)O)[C@@H](O)[C@H]2O)c(=O)n1; assay: hydroxamate assay, A540; assay type: biochemical, Methanosarcina thermophila; settings: saturating acetate when possible (max 1 M), MgCl2, 50 mM Tris pH 7.5, 300 mM hydroxylamine, 37 °C
purified protein = substrate: CC(=O)O; assay: purified protein; settings: ATP constant at optimal concentration, MgCl2, 50 mM Tris pH 7.5, 300 mM hydroxylamine, 37 °C
hydroxamate assay, A540 [11] = substrate: O=c1ccn([C@@H]2O[C@H](COP(=O)(O)OP(=O)(O)OP(=O)(O)O)[C@@H](O)[C@H]2O)c(=O)[nH]1; assay: hydroxamate assay, A540; assay type: biochemical, Methanosarcina thermophila; settings: saturating acetate when possible (max 1 M), MgCl2, 50 mM Tris pH 7.5, 300 mM hydroxylamine, 37 °C
hydroxamate assay, A540 [12] = substrate: O=P(O)(O)OP(=O)(O)OP(=O)(O)OC[C@H]1O[C@@H](n2cnc3c(O)ncnc32)[C@H](O)[C@@H]1O; assay: hydroxamate assay, A540; assay type: biochemical, Methanosarcina thermophila; settings: saturating acetate when possible (max 1 M), MgCl2, 50 mM Tris pH 7.5, 300 mM hydroxylamine, 37 °C
hydroxamate assay, A540 [13] = substrate: Cc1cn([C@H]2C[C@H](O)[C@@H](COP(=O)(O)OP(=O)(O)OP(=O)(O)O)O2)c(=O)[nH]c1=O; assay: hydroxamate assay, A540; assay type: biochemical, Methanosarcina thermophila; settings: saturating acetate when possible (max 1 M), MgCl2, 50 mM Tris pH 7.5, 300 mM hydroxylamine, 37 °C

- Km [1]: 6.8 ± 0.6 mM
- Km [2]: 10.2 ± 0.4 mM
- Km [3]: 18.4 ± 0.6 mM
- Km [4]: 4 ± 0.3 mM
- Km [5]: 5.9 ± 0.5 mM
- Km [6]: 1.7 ± 0.1 mM
- Km [7]: 7.1 ± 0.3 mM
- Km [8]: 1.8 ± 0.1 mM
Molecule: Nc1ncnc2c1ncn2[C@@H]1O[C@H](COP(=O)(O)OP(=O)(O)OP(=O)(O)O)[C@@H](O)[C@H]1O [ATP]

B1: MtACK (Methanosarcina thermophila acetate kinase) (Methanosarcina thermophila; G331A) (protein)
chain: MKVLVINAGSSSLKYQLIDMTNESALAVGLCERIGIDNSIITQKKFDGKKLEKLTDLPTHKDALEEVVKALTDDEFGVIKDMGEINAVGHRVVHGGEKFTTSALYDEGVEKAIKDCFELAPLHNPPNMMGISACAEIMPGTPMVIVFDTAFHQTMPPYAYMYALPYDLYEKHGVRKYGFHGTSHKYVAERAALMLGKPAEETKIITCHLGNGSSITAVEGGKSVETSMGFTPLEGLAMGTRCGSIDPAIVPFLMEKEGLTTREIDTLMNKKSGVLGVSGLSNDFRDLDEAASKGNRKAELALEIFAYKVKKFIGEYSAVLNGADAVVFTAAIGENSASIRKRILTGLDGIGIKIDDEKNKIRGQEIDISTPDAKVRVFVIPTNEELAIARETKEIVETEVKLRSSIPV
notes: full-length, N-terminal His6 tag (pET15b, pETack), expressed in E. coli BL21(DE3), HisTrap purified; tag removal not mentioned
- Km (hydroxamate assay, A540 [9]): 5.3 ± 0.2 mM
- kcat (hydroxamate assay, A540 [9]): 67 ± 1.0 s⁻¹
- kcat/Km (hydroxamate assay, A540 [9]): 12600 ± 400 M⁻¹ s⁻¹
- Km (hydroxamate assay, A540 [10]): 15.7 ± 1.6 mM
- kcat (hydroxamate assay, A540 [10]): 17 ± 0.8 s⁻¹
- kcat/Km (hydroxamate assay, A540 [10]): 1100 ± 70 M⁻¹ s⁻¹

B2: MtACK (Methanosarcina thermophila acetate kinase) (Methanosarcina thermophila) (protein)
chain: MKVLVINAGSSSLKYQLIDMTNESALAVGLCERIGIDNSIITQKKFDGKKLEKLTDLPTHKDALEEVVKALTDDEFGVIKDMGEINAVGHRVVHGGEKFTTSALYDEGVEKAIKDCFELAPLHNPPNMMGISACAEIMPGTPMVIVFDTAFHQTMPPYAYMYALPYDLYEKHGVRKYGFHGTSHKYVAERAALMLGKPAEETKIITCHLGNGSSITAVEGGKSVETSMGFTPLEGLAMGTRCGSIDPAIVPFLMEKEGLTTREIDTLMNKKSGVLGVSGLSNDFRDLDEAASKGNRKAELALEIFAYKVKKFIGEYSAVLNGADAVVFTAGIGENSASIRKRILTGLDGIGIKIDDEKNKIRGQEIDISTPDAKVRVFVIPTNEELAIARETKEIVETEVKLRSSIPV
notes: as for B1
- Km (purified protein): 14.3 ± 0.5 mM
- Km (hydroxamate assay, A540 [9]): 7.2 ± 0.9 mM
- kcat (hydroxamate assay, A540 [9]): 571 ± 22 s⁻¹
- kcat/Km (hydroxamate assay, A540 [9]): 80000 ± 7000 M⁻¹ s⁻¹
- Km (hydroxamate assay, A540 [10]): 3.2 ± 0.4 mM
- kcat (hydroxamate assay, A540 [10]): 460 ± 28 s⁻¹
- kcat/Km (hydroxamate assay, A540 [10]): 148000 ± 13000 M⁻¹ s⁻¹
- Km (hydroxamate assay, A540 [11]): 2.7 ± 0.3 mM
- kcat (hydroxamate assay, A540 [11]): 415 ± 19 s⁻¹
- kcat/Km (hydroxamate assay, A540 [11]): 152000 ± 7000 M⁻¹ s⁻¹
- Km (hydroxamate assay, A540 [12]): 4.7 ± 0.2 mM
- kcat (hydroxamate assay, A540 [12]): 742 ± 10 s⁻¹
- kcat/Km (hydroxamate assay, A540 [12]): 158000 ± 5000 M⁻¹ s⁻¹
- Km (hydroxamate assay, A540 [13]): 2.7 ± 0.1 mM
- kcat (hydroxamate assay, A540 [13]): 540 ± 9 s⁻¹
- kcat/Km (hydroxamate assay, A540 [13]): 202000 ± 2000 M⁻¹ s⁻¹
